Measured values as given in the nanobody polyreactivity screen of Harvey et al. (2022).

Assay: yeast display, Sf9 membrane polyspecificity reagent, FACS + sequencing; frameworks hold sequencing errors
How it was run: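 Sorting gates, low and high (top ~1%), were placed on anti-HA fluorescence to track expression and on streptavidin fluorescence to track reagent binding. A clone's polyreactivity label is taken from the gate it came out of. The reagent was 10% biotinylated, detergent-solubilized Sf9 membrane, applied for 1 hour at 4 °C to galactose-induced yeast display cells.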
With “QVQLVESGGGLVQEVGSLRLSCAATGRTFYQNVMGWSRQARGKERELVAAISQRGGRTYYADSVKGRFTISRDNAKITVYLQMNSLKPEDTEVYYCNADSTVWPYDYWGQGTQVTVSS” the “polyreactivity (PSR sort gate)” value was “low polyreactivity”. For “QVQLVESGGGLVQAGGSLRLSCAASGRIFGSYAMGWYRQAPGKERELVATISRRGGSTYYADSVKGRFTISRDNAKNTVYLQMNRLKPEDTAVYYCNADYKITKTWSGTIRYYYWGQGTQVTVSS”, the “polyreactivity (PSR sort gate)” value was “high polyreactivity”. With “QVQLVESGGGLVQAGGSLRLSCAASGLIFYKYAMGWYRQAPGKERELVASISTGGGSTYYADSVKGRFTISRDNAKNTVYLQMNSLKPEDTAVYYCAARWWRRFRGSHSLYDYWGQGTQVTVSS” the “polyreactivity (PSR sort gate)” value was “high polyreactivity”. For “QVQLVESGGGLVQAGGSLRLSCAASGSIFFYYAMGWYRQAPGKERELVAAITSSDGDTYYADSVKGRFTISRDNAKNTVYLQMYSLKPEDTAVYYCAAESGPSPPITTSSNEYWGQGTLVTVSS”, the “polyreactivity (PSR sort gate)” value was “low polyreactivity”. With “QVQLVESGGGLVQAGGSLRLSCAAYGSTFYHKAMGWYRQAPGKERELVARITRGGSTDYADSVKGRFTISRDNAKNTVYLQMNSRKPEDTAVYYCAAAIGHFERFYWGQGTQVTVSS” the “polyreactivity (PSR sort gate)” value was “low polyreactivity”. In the case of “QVQLVESGGGLVQAGGSRRLSCAASGIIFAQYAMGWYRQAPGKERELVDSISGGGSTTNYADSVKGRFTISRDNAKNTVYLQMNSLKPEDTAVYYCAARTRRRGGIYDYWGQGTQVTVSS”, the “polyreactivity (PSR sort gate)” value is reported as “high polyreactivity”. For “QVQLVESGGGLVQAGGSLRLSCAASGSIFPRYAMGWYRQAPGKERELVAAITGSGSSTYYADSVKGRFTISRDNAKNTVYLQMNSLKPEDTAVYYCAARKARPPFPHPFDYYWGQGTQVTVSS”, the “polyreactivity (PSR sort gate)” value was “low polyreactivity”. For “QVQLVESGGGLVQAGGSLRLSCAASGRIFNRYAMGWYRQAPGKERELVASISLSGDSTYYADSVKGRFTISRDNAKNTVYLQMNSLKPEDTAVYYCAVEGLGAAVYAGDRYDYWGQGTQVTVSS”, the “polyreactivity (PSR sort gate)” value was “low polyreactivity”. In the case of “QVQLVESGGGLVQAGGSLRISCAASGLILIVYAMGWYRQAPGKERELVAAISSGGITYYADSVKGRFTISRDNAKNTVYLQMNSLKPEDTAVYYCAAESAYWWGDYYYWGQGTQVTVSS”, the “polyreactivity (PSR sort gate)” value is reported as “high polyreactivity”. In the case of “QVQLVESGGGLVQAGGSLRLSCAASGLSSLRMLWDGIDRRLGKKGSWLPLITSGGDSTNYADSVKGRFTISRDIAKNTVYLQMNSLKPEDTAVYYCAADLDYPYGYWGQGTQVTVSS”, the “polyreactivity (PSR sort gate)” value is reported as “low polyreactivity”. With “QVQLVESGGGLVQAGGSLRISCADSGSIFHPNAMGWYRQAPGKERELVAAISIGGDTYYADSVKGRFTISRDNAKNTVYLQMNSLKPEDTAVYYCAVTYVGHVYEYYYWGQGTQVTVSS” the “polyreactivity (PSR sort gate)” value was “low polyreactivity”. In the case of “QVQLVESGGCLVQAGGSLRLSCAASGFIFRRYALGWNRQAPGKERELVAAISSSGGRTTYADSVKGRFTISRDNAKNTVYLQMNSLKPEDTAVYYCNADLCPGNHDGYWGQGTQVTVSS”, the “polyreactivity (PSR sort gate)” value is reported as “low polyreactivity”. With “QVQLVESGGGLVQAGVSLRLSCASSGFTFHYYAMGWYRQAPGKERELVAAISWSSGRTYYADSVKGRFTISRDNAKNTVYLQMNSLKPEDTAVYYCAASSYNRGDYWGQGTQVTVSS” the “polyreactivity (PSR sort gate)” value was “low polyreactivity”. With “QVQLVESGGGLVQAGGSLRLSCAASGSIFNGYVMGWYRQAPGKERELVASINRGGTTNYADSVKGRFTISRDNAKNTVYLQMNSLKPEDTAVYYCAVDDDANSLGGYYVLFDYWGQGTQVTVSS” the “polyreactivity (PSR sort gate)” value was “low polyreactivity”. In the case of “QVQLVESGGGLVQAGGSLRLSCAASGITFEGYAMGWFRPAPGKERELVAAIRSSGTSTYYADSVKGRFTISRDNAKTTVYLQMNSQKPVDTAVYYCNRARSSSRYDYWGQGTQVTVSS”, the “polyreactivity (PSR sort gate)” value is reported as “low polyreactivity”. In the case of “QVQLVESGGGLVQAGGSLRLSCAASGRTFGRYTMGLYRQAPGKERELVAAITYSGGSTYYADSVKGRFTISRDNAKNTVYFQMNSLKPVDTAVYYCADEWGYDWYRYGYWGQGTQVTVSS”, the “polyreactivity (PSR sort gate)” value is reported as “low polyreactivity”. With “QVQLVESGGGLVQAGGSLRLTCAASGRTFRPYDMGWYRQAPGKQRELVATITTNGGSTYYADSVKGRFTISRDNAMNTVYLQMTSLKPEDTAGYYCATDNSWPTYHYDGGYYWGQGTQVTVSS” the “polyreactivity (PSR sort gate)” value was “low polyreactivity”. In the case of “QVQLQECGGGLVQAGGSLRLSCAASGNIFDADIMGWYRQAPGKERELVASVTDGGSTNYADSVKGRFTISRDNAKITVYLQLNSLKPEDTAVYYCAAIVYPDILTDFDYDYDYFYWGQGTQVTVGS”, the “polyreactivity (PSR sort gate)” value is reported as “low polyreactivity”. In the case of “QVQLVESGGGLVQAGGSLRLSCAASGSIFIYNARGWYRQAPGKERELVAAINWTGGSTYYADSVKGRFTISRDNAKNTVYLQMNSLKPEDTAVYYCNALRYGSTRGYDYWGQGTQVTVSS”, the “polyreactivity (PSR sort gate)” value is reported as “high polyreactivity”. With “QVQLVESGGGLVQAGGSLRLSCAASGYTFDTNALGWYRLAPGTEREFVAAISSTGGTYYADSVKGRFTISRDNAKNTVYLQMNSLKPEDTAVYYCAATFIQVVVIVQLYDYDYWRQGTQVTVSS” the “polyreactivity (PSR sort gate)” value was “low polyreactivity”. In the case of “QVQLVESGGGLVQAGGSLRLSCAASGRILEGYAMGWYRQAPGKERELVAAISFSTTTTYYADSVKGRFTISRDNAKNTVYLQMNSLKPEDTAVYYCAADSQQSDYDYWGQGTQVTVSS”, the “polyreactivity (PSR sort gate)” value is reported as “high polyreactivity”. With “QVQLVESGAGLVQAGGSLRLSCAASGSTFWWNTMGWYRQAPGKERELVAAITTGGGTYYADSVKGRFTISRDNAKNTVYLQMNSLKPEDTAVYYCAATVRSYGWYAYHYSTYGYWGQGTQVTVSS” the “polyreactivity (PSR sort gate)” value was “low polyreactivity”. In the case of “QVQLVESGGGLVQAGGRLRLSCAASGSIFRFYAMGWYRQAPGKERELVASISSGGSTYYADSVKGRFTISRDNAKNTVYLKLNSLKAEDTAVYYCAHGFAQYGVDLDPGDYDYWGQGTQVTVSS”, the “polyreactivity (PSR sort gate)” value is reported as “low polyreactivity”. With “QVQLVESGGGLVQAGASLRLSCAASGHIFDSYAMGWYRQAPGKERELVAAITSGGSTYYADSVKGRFTISRDYAKNTVYLQMNSLKSEDTAVYYCATELGAAGDDSWGQGTQVTVSS” the “polyreactivity (PSR sort gate)” value was “low polyreactivity”. With “QVQLVESGGGLVQAGGSLRLSCAASGRTLGYNAVGWYRQAPGKERELVAAINGGDSTYADSVKGRFTISRDNAKNTVYLQMNSLKPEDTAVYYCNALRGGPFRWHGYYYWGQGTQVTVSS” the “polyreactivity (PSR sort gate)” value was “low polyreactivity”. In the case of “QVQLVESGGGLVQAGGSLRLSCAASGRIFVKNAMGWYRQAPGKERELVATISSGGNTNYADSVKGRFTISRDNAKNTVYLQMNSLKPEDTAVYYCAAVWDLGDYELPYDYWGQGTQVTVSS”, the “polyreactivity (PSR sort gate)” value is reported as “low polyreactivity”. With “QVQLVESGGGLVHAGGSLRLSCAASGFTFSYNARGWYRQAPGKERELVASITRSGGRTYYADSVKGRFTISRDNAKNTVYLQMNSLKPEDTGVYYCAAVWYPWLSSIFDYWGQGTQVTVSS” the “polyreactivity (PSR sort gate)” value was “high polyreactivity”. With “QVQLVESGGGLVQAGGSLRLSCAASGRTFFTNALGGYRQAPGKVRELVASINSGGNTTYADSVKGRFTISRDNAKNTVYLQINSLKPEDTAVSYCAAVRSAQRWRRYYYGGQGTQVTVSS” the “polyreactivity (PSR sort gate)” value was “low polyreactivity”. With “QVQLVESGGGLVQAGGSLRLSCAASGFTFSYYAMGWYRQAPGKERELVAAISRSGGSPYYADSVKGRFTISRDNAKYTVYLQMNSLKPADTAVYYCATDLSYRHGYWGQGTQVTVSS” the “polyreactivity (PSR sort gate)” value was “high polyreactivity”. With “QVQLVESGGGLVQAGGSLRLSCAASGFIFWLYALGWYRKAPGKERELVASINWSGGDTYYADSVKGRFTISRDNPKNTVYLQLNSLKPEDTAVYYCNAQVYRYRIGYDYWGQGPQVTVSS” the “polyreactivity (PSR sort gate)” value was “low polyreactivity”. For “QVQLVESVGGLVQAGGSLRLSCAASGSIFYDNGMGWYRQAPGNERELVAAISRGGTTNYADSVKGRFTISRDKAKNTVYLQMNSLKPEDTAVYYCNAETRFTYWGSWYDYWGQGTQVTVSS”, the “polyreactivity (PSR sort gate)” value was “low polyreactivity”. In the case of “QVQLVESGGGLVQAGGSLRLSCAASGSTFLPNAMGWYRQPPGKERELVAAITNSGGNTYADSVKGRFTISRDNAKNTVYLQMNSLKPEDTAVYYCNARFSPTGWARGNDYWGQGTQVTVSS”, the “polyreactivity (PSR sort gate)” value is reported as “low polyreactivity”.
